Data on six molecules can be found in patent US20250257133A1 (ADAGENE PTE, published 2025).

The target of test [1] is Human CTLA4 (ligand competition ELISA) (human, UniProt P16410 36-161, limits assumed). Description: ELISA, blocking of CTLA4-CD80. In general terms: ELISA stands for enzyme-linked immunosorbent assay.
Test [2] deals with T1, His-tagged human CTLA4 protein (human, UniProt P16410 36-161, limits assumed).
T1 construct: not shown: His tag
Briefly: Octet BLI, mAb captured.

Test [3] addresses T2, His-tagged human CD28 protein (human, UniProt P10747 19-152).
T2 construct: not shown: His tag
Briefly: Octet BLI, mAb captured. In general terms: In BLI a coated tip is dipped into the sample, and binding shifts an interference pattern.

The target of test [4] is T3, Human CD28 on cells (human, UniProt P10747 19-220).
T3 construct: Jurkat E6-1 cells, primary human T cells, or transfected HEK293F cells; also called CD28 on Jurkat cells; CD28 on human CD3+ T cells
Briefly: flow cytometry, Jurkat cells. In general terms: A flow cytometer gives signals particle by particle.
Description: Next, the cells were washed twice with DPBS and further incubated with a APC-anti-human IgG Fc secondary antibody (1 μg/mL, 100 μL/well, Biolegend) for 30 minutes at 4° C. Finally, the cells were washed twice with DPBS and suspended in FACS buffer for flow cytometry analysis. For analysis, the Mean Fluorescence Intensity (MFI) values versus concentrations were plotted using FlowJo 10 software (FlowJo LLC) and the data were further fitted with four-parameter non-linear regression to obtain EC₅₀ values by GraphPad Prism version 7 for Windows, GraphPad Software, La Jolla California USA, www.graphpad.com.

Test [5] deals with T4, Recombinant human CD28-Fc (human, UniProt P10747 19-152).
T4 construct: not shown: Fc part
Description: ELISA, coated CD28-Fc.

Test [6] has as its target T1, His-tagged human CTLA4 protein. Description: Octet BLI, mAb captured. This is another data set of the same source.
Description: The Octet® RED96 Systems (ForteBio) was used to assess the binding kinetics of the panel of anti-CD28 mAbs to human CD28 and CTLA4. Briefly, the mAbs were diluted to 15 μg/mL in kinetic buffer (PBS supplemented with 0.02% Tween 20 and 0.1% BSA), and captured by Dip and Read AHC biosensors (ForteBio) in parallel. The sensors were then allowed to associate with His-tagged human CD28 and CTLA4 proteins (100 nM) for 300 seconds, and to dissociate in kinetic buffer for another 300 seconds. The association and dissociation curves were fitted to a 1:1 Langmuir binding model using the Octet® Data Analysis Software Version 7.1 (ForteBio).
The target of test [7] is Human CD28 (ELISAs of Examples 4 and 13) (human, UniProt P10747 19-152, limits assumed). Briefly: ELISA, blocking of CD28-CD80.
The target in test [8] is T5, Recombinant mouse CD28-Fc (mouse, UniProt P31041 20-150).
T5 construct: not shown: Fc part
Briefly: ELISA on coated recombinant mouse CD28-Fc, HRP anti-human IgG (Fab specific), A450; panel 'Mouse CD28'.

Test [9] addresses T6, HER2 on SK-OV-3 cells (UniProt P04626 23-1255, limits assumed).
T6 construct: whole, on cells; also called HER2 antigen
Briefly: flow cytometry on SK-OV-3 cells, APC anti-human IgG Fc secondary antibody, mean fluorescence intensity, 4-parameter fit; drawn table.

Test [10] concerns the target T5, Recombinant mouse CD28-Fc. Briefly: ELISA, coated CD28-Fc.
Description: Recombinant human and mouse CD28-Fc were diluted to 2 g/mL in PBS and coated on Nunc MaxiSorp™ high protein-binding capacity 96 well ELISA plates (ThermoFisher Scientific) at 4° C. overnight. Plates were blocked with PBS supplemented with 3% non-fat milk at 37° C. for 1 hour. After washing, 50 PL of 3-fold serial dilutions of a panel of anti-CD28 test mAbs were added to each well. After incubation at 37° C. for 1 hour, plates were washed four times, and 100 μL of a horseradish peroxidase (HRP)-conjugated anti-human IgG (Fab specific) (1:6000 dilution) secondary antibody was added to each well. Plates were incubated at 37° C. for 1 hour, washed four times, and then 50 μL of a TMB substrate (3, 3′, 5, 5′-tetramethylbenzidine) solution was added to each well, and the plate was incubated at room temperature. Absorbance at 450 nm was measured after the reactions were stopped by adding 50 μL of a sulfuric acid stop solution to each well. The EC₅₀ was evaluated by fitting the ELISA data using the asymmetrical sigmoidal (4-parameter logistic equation) model of GraphPad Prism version 7 for Windows, GraphPad Software, La Jolla California USA, www.graphpad.com.
Test [11] addresses T4, Recombinant human CD28-Fc. Description: ELISA on coated recombinant human CD28-Fc, HRP anti-human IgG (Fab specific), A450.
Description: (§1) When measuring the masking efficiency through ELISA, recombinant human CD28-Fc was diluted to 2 g/mL in PBS and coated onto a MaxiSorp™ high protein-binding capacity 96 well ELISA plate (ThermoFisher Scientific) at 4° C. overnight. Plates were blocked with PBS supplemented with 3% non-fat milk at 37° C. for 1 hour. After washing, 100 μL of 3-fold serial dilutions of anti-CD28 test mAbs were added to each well. After incubation at 37° C. for 1 hour, plates were washed four times, and 100 μL horseradish peroxidase (HRP)-conjugated anti-human IgG (Fab specific) (1:6000 dilution) secondary antibody was added to each well. Plates were incubated at 37° C. for 1 hour, washed four times, and then 50 μL a TMB substrate (3, 3′, 5, 5′-tetramethylbenzidine) solution was added to each well, and the plate was incubated at room temperature. Absorbance at 450 nm was measured after the reactions were stopped with 50 μL sulfuric acid stop solution per well. The EC₅₀ was evaluated by fitting the ELISA data using the sigmoidal (four-parameter logistic equation) model of GraphPad Prism version 6 for Windows, GraphPad Software, La Jolla California USA, www.graphpad.com.
Test [12] concerns the target T4, Recombinant human CD28-Fc. Described as above. The source holds these as a separate data set.
Description: as §1
The target of test [13] is T7, TROP2 on tumor cell lines (UniProt P09758 27-323, limits assumed).
T7 construct: whole, on cells; also called tumor-associated calcium signal transducer 2; TROP2 on H292, NCI-N87, HT-29
T7 sequence (looked up): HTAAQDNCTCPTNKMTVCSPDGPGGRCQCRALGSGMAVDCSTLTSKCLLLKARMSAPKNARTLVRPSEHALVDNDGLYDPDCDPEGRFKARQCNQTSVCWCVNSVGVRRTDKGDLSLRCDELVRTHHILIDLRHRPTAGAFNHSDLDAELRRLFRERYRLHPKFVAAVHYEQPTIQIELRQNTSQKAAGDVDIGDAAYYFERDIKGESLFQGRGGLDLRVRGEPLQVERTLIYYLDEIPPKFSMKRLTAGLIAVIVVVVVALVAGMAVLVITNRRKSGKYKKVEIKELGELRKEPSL
Description: flow cytometry, H292 cells.
Description: (§2) H292, NCI-N87, or HT29 cells were cultured and seeded in 96-well plates at 1.0×10⁵ cells/well and incubated with serially diluted test anti-TROP2 BsAbs for 30 minutes at 4° C. in 2% FBS/RPMI1640 buffer. Next, the cells were washed twice with DPBS and further incubated with secondary anti-human IgG antibodies (APC-anti-human IgG Fc antibody, 1:300 dilution for H292 cell; APC-F (ab′) 2 fragment goat anti-human IgG (H+L), 1:500 dilution for NCI-N87 and HT29 cells) for 30 minutes at 4° C. Finally, the cells were washed twice with DPBS and resuspended in FACS buffer for flow cytometry analysis. For analysis, the MFI values versus concentrations were plotted using FlowJo 10 software (FlowJo LLC) and the data were further fitted with four-parameter non-linear regression to obtain EC₅₀ values by GraphPad Prism version 7 for Windows.

Test [14] deals with T7, TROP2 on tumor cell lines. Description: flow cytometry, HT-29 cells.
Description: as §2
The target of test [15] is T7, TROP2 on tumor cell lines. Briefly: flow cytometry, NCI-N87 cells.
Description: as §2

Like-named read-outs stand apart in the source and are kept apart here.
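For Kd in this document: Anti-human Fc biosensors captured the antibodies, then His-tagged protein analytes at 100 nM associated for 300 s and dissociated for 300 s, fitted by a 1:1 Langmuir model.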
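For koff in this document: Anti-human Fc biosensors captured the antibodies, then His-tagged protein analytes at 100 nM associated for 300 s and dissociated for 300 s, fitted by a 1:1 Langmuir model.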
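For kon in this document: Anti-human Fc biosensors captured the antibodies, then His-tagged protein analytes at 100 nM associated for 300 s and dissociated for 300 s, fitted by a 1:1 Langmuir model.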

T1 sequence (P16410 36-161 limits assumed): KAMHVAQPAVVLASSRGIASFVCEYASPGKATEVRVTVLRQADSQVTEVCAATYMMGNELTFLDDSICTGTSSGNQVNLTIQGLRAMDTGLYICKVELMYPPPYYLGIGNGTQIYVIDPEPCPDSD
T5 sequence (P31041 20-150 limits assumed): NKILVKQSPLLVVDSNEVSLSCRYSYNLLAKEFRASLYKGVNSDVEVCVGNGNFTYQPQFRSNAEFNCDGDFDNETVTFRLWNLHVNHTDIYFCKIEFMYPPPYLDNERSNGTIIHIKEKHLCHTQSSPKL
Chain of Human CTLA4 (ligand competition ELISA) (P16410 36-161 limits assumed): as the sequence (P16410 36-161 limits assumed) above

B1: TY21580 (antibody, V domains shown)
VH: EVQLVESGGGLVQPGGSLRLSCAASGYSISSGYHWSWIRQAPGKGLEWLARIDWDDDKYYSTSLKSRLTISRDNSKNTLYLQLNSLRAEDTAVYYCARSYVYFDYWGQGTLVTVSS
VL: DIQLTQSPSSLSASVGDRVTITCRASQSVRGRFLAWYQQKPGKAPKLLIYDASNRATGIPSRFSGSGSGTDFTLTISSLQPEDFATYYCQQSSSWPPTFGQGTKVEIKR
Consider B1, for which the IC50 – broadly, the midpoint of a concentration-inhibition curve – in test [1] was found to be 37200 pM.

B2: TY24853 (antibody, human IgG4 S228P, kappa, V domains shown)
VH: EVQLVESGGGLVQPGGSLRLSCAASGYSITSGHHWSWIRQAPGKGLEWIGEIYHSGSTYYSPSLKSRVTISRDNSKNTLYLQLNSLRAEDTAVYYCARKDDYYAFDYWGQGTLVTVSS
VL: DIQLTQSPSSLSASVGDRVTITCRASESVDFYGISFLHWYQQKPGKAPKLLIYAASTLQSGVPSRFSGSGSGTDFTLTISSLQPEDFATYYCQQSYRTPITFGQGTKVEIKR
notes: hIgG4/S241P
For B2, the binding result in [2] is “no binding (tested: 100 nM CTLA4)”. Also, in test [3], binding was characterised by a dissociation constant (Kd) of 3960 pM; the koff – broadly, the first-order rate constant of dissociation – is 0.000164 s⁻¹; the kon (commonly a measure of how fast the partners come together) stood at 41600 M⁻¹ s⁻¹. Besides, in [4], the half-maximal effective concentration (EC50) (as a rule, the concentration that produces a half-maximal response) came to 430 pM.

B3: TY24890 (antibody, human IgG4 S228P, kappa, V domains shown)
VH: EVQLVESGGGLVQPGGSLRLSCAASGYSISSGHHWGWIRQAPGKGLEWIGEIYHSGSTYYSPSLKSRVTISRDNSKNTLYLQLNSLRAEDTAVYYCARRELGYAYFDYWGQGTLVTVSS
VL: EIVLTQSPATLSLSPGERATLSCRASQDIRKYLAWYQQKPGQAPRLLIYAASTLQSGVPARFSGSGSGTDFTLTISSLEPEDFAVYYCQQYYRTPLTFGQGTKVEIKR
notes: hIgG4/S241P
In the case of B3, the EC50 in test [5] was determined as 1550 pM. In addition, in [3], the equilibrium dissociation constant (Kd) (usually the equilibrium constant for the complex coming apart) stood at 4440 pM, the koff was 0.000437 s⁻¹ and the kon was 98500 M⁻¹ s⁻¹. In test [6], binding was characterised by a dissociation constant (Kd) of 3130 pM, the koff came to 0.00344 s⁻¹ and the kon came out at 1.1e+06 M⁻¹ s⁻¹. For the same molecule, the EC50 in [4] worked out at 590 pM. Besides, the IC50 in test [7] came out at 210 pM. Besides, the binding result in test [8] is “no binding (tested: about 10^-6.9 M)”.

B4: TY25238 (bispecific antibody)
chain 1: not shown
chain 2: not shown
chain 3: QAVVTQEPSLTVSPGGTVTLTCGSSTGAVTTSNYPNWVQQKPGQAPRGLIGGTNKRAPGVPARFSGSLLGGKAALTLSGAQPEDEAEYYCALWYSNLWVFGGGTKLTVLGGGGSGGGGSGGGGSGGGGSEVQLVESGGGLVQPGGSLRLSCAASGFTFNTYAINWVRQAPGKGLEWVGRIRSKYNNYATYYAESVKGRFTISRDDSKNTLYLQINSLRAEDTAVYYCVRHGNFGTSYVSWFAYWGQGTLVTVSSEPKSSDKTHTCPPCPAPELLGGPSVFLFPPKPKDTLMISRTPEVTCVVVDVSHEDPEVKFNWYVDGVEVHNAKTKPREEQYASTYRVVSVLTVLHQDWLNGKEYKCKVSNKALPAPIEKTISKAKGQPREPQVYTDPPSRDELTKNQVSLTCLVDGFYPSDIAVEWESNGQPENCYKTTPPVLDSDGSFFLYSKLTVDKSRWQQGNVFSCSVMHEALHNHYTQDSLSLSPGK
As for B4, in [9], the response was half-maximal at 3740 pM (EC50).

B5: TY24865 (antibody, human IgG4 S228P, kappa)
heavy: not shown
light: DIQLTQSPSSLSASVGDRVTITCRASQSVDFHGISFLHWYQQKPGKAPKLLIYAASSLQSGVPSRFSGSGSGTDFTLTISSLQPEDFATYYCQQSYRSPRTFGQGTKVEIKRTVAAPSVFIFPPSDEQLKSGTASVVCLLNNFYPREAKVQWKVDNALQSGNSQESVTEQDSKDSTYSLSSTLTLSKADYEKHKVYACEVTHQGLSSPVTKSFNRGEC
notes: hIgG4/S241P; also called parental anti-CD28 antibody
As for B5, the EC50 is 580 pM in test [5], greater than 4940 pM in [10] and 460 pM in test [4]. Besides, the Kd in test [3] was less than 1 pM. Moreover, the binding result in test [6] is “no binding (tested: 100 nM CTLA4)”. Further, the IC50 in test [7] is 680 pM. Further, the EC50 (read off the curve) – broadly, the concentration giving half of the maximal effect – is roughly 700 pM in test [11] and roughly 900 pM in test [12].

B6: TY27571 (bispecific antibody, human IgG1, kappa, N297A)
light: DIQLTQSPSSLSASVGDRVTITCRASQDVSIAVAWYQQKPGKAPKLLIYSASYRYTGVPARFSGSGSGTDFTLTISSLQPEDFATYYCQQHYITPLTFGQGTKVEIKRTVAAPSVFIFPPSDEQLKSGTASVVCLLNNFYPREAKVQWKVDNALQSGNSQESVTEQDSKDSTYSLSSTLTLSKADYEKHKVYACEVTHQGLSSPVTKSFNRGEC
heavy: QVQLLQSGSELKKPGASVKVSCKASGYTFTNYGINWVRQAPGQGLEWLGWIHTYTGEPTYTDDFKGRFVFSLDTSVSTAYLQISSLKADDTAVYYCARGGFGSSYWYFDVWGQGTLVTVSSASTKGPSVFPLAPSSKSTSGGTAALGCLVKDYFPEPVTVSWNSGALTSGVHTFPAVLQSSGLYSLSSVVTVPSSSLGTQTYICNVNHKPSNTKVDKKVEPKSCDKTHTCPPCPAPELLGGPSVFLFPPKPKDTLMISRTPEVTCVVVDVSHEDPEVKFNWYVDGVEVHNAKTKPREEQYASTYRVVSVLTVLHQDWLNGKEYKCKVSNKALPAPIEKTISKAKGQPREPQVYTLPPSRKKLTKNQVKLTCLVKGFYPSDIAVEWESNGQPENNYKTTPPVLDCDGSFFLYSKLTVDKSRWQQGNVFSCSVMHEALHNHYTQKSLSLSPGK
chain: DIQLTQSPSSLSASVGDRVTITCRASQSVDFHGISFLHWYQQKPGKAPKLLIYAASSLQSGVPSRFSGSGSGTDFTLTISSLQPEDFATYYCQQSYRSPRTFGQGTKVEIKGGGGSGGGGSGGGGSGGGGSEVQLVESGGGLVQPGGSLRLSCAASGFSLSTGGVGVSWIRQAPGKGLEWIGEIYHSGSTYYSPSLKSRVTISRDNSKNTLYLQLNSLRAEDTAVYYCARYEYYYYDFDYWGQGTLVTVSSEPKSSDKTHTCPPCPAPELLGGPSVFLFPPKPKDTLMISRTPEVTCVVVDVSHEDPEVKFNWYVDGVEVHNAKTKPREEQYASTYRVVSVLTVLHQDWLNGKEYKCKVSNKALPAPIEKTISKAKGQPREPQVYTDPPSRDELTKNQVSLTCLVDGFYPSDIAVEWESNGQPENCYKTTPPVLDSDGSFFLYSKLTVDKSRWQQGNVFSCSVMHEALHNHYTQDSLSLSPGK
notes: also called anti-TROP2xCD28 BsAb
Regarding B6, the EC50 came to 822 pM in test [13], 559 pM in test [14] and 911 pM in test [15].
